Assay [1] has as its target CDV M protein (strain A75/17) mutant E89G. Nature of the assay: coimmunoprecipitation (coIP efficiency index, Western blot band quantification). As to conditions: 2xHA-M and FLAG-M co-expressed in HEK-293T cells; IP anti-HA, IB anti-M; parent: est. 100; read off a plot.
Assay [2] concerns the target CDV M protein (strain A75/17) mutant K243E. The description is as above. As to conditions: 2xHA-M and FLAG-M co-expressed in HEK-293T cells; IP anti-HA, IB anti-M; parent: est. 100; read off a plot.
In assay [3] the target is CDV M protein (strain A75/17) mutant K240Q. The assay is described as above. As to conditions: 2xHA-M and FLAG-M co-expressed in HEK-293T cells; IP anti-HA, IB anti-M; parent: est. 100; read off a plot.
Assay [4] deals with CDV M protein (strain A75/17) mutant L239D. The assay is described as above. As to conditions: 2xHA-M and FLAG-M co-expressed in HEK-293T cells; IP anti-HA, IB anti-M; parent: est. 100; read off a plot.
For assay [5], the target named is CDV M protein (strain A75/17) mutant L96N. The description is as above. As to conditions: 2xHA-M and FLAG-M co-expressed in HEK-293T cells; IP anti-HA, IB anti-M; parent: est. 100; read off a plot.
The target of assay [6] is CDV M protein (strain A75/17) mutant A94S. Described as above. As to conditions: 2xHA-M and FLAG-M co-expressed in HEK-293T cells; IP anti-HA, IB anti-M; parent: est. 100; read off a plot.
In assay [7] the target is CDV M protein (strain A75/17) mutant D235N. The description is as above. As to conditions: 2xHA-M and FLAG-M co-expressed in HEK-293T cells; IP anti-HA, IB anti-M; parent: est. 100; read off a plot.
Assay [8] has as its target CDV M protein (strain A75/17) mutant E89R. Described as above. As to conditions: 2xHA-M and FLAG-M co-expressed in HEK-293T cells; IP anti-HA, IB anti-M; parent: est. 100; read off a plot.
Assay [9] has as its target CDV M protein (strain A75/17) mutant Y236F. Described as above. As to conditions: 2xHA-M and FLAG-M co-expressed in HEK-293T cells; IP anti-HA, IB anti-M; parent: est. 100; read off a plot.
Assay [10] deals with CDV M protein (strain A75/17) mutant P87A. Described as above. As to conditions: 2xHA-M and FLAG-M co-expressed in HEK-293T cells; IP anti-HA, IB anti-M; parent: est. 100; read off a plot.
The target of assay [11] is CDV M protein (strain A75/17) mutant G245P. The assay is described as above. As to conditions: 2xHA-M and FLAG-M co-expressed in HEK-293T cells; IP anti-HA, IB anti-M; parent: est. 100; read off a plot.
For assay [12], the target named is CDV M protein (strain A75/17) mutant K238E (canine distemper virus, strain A75/17). The assay is described as follows: co-IP; FLAG-M and 2×HA-longlinker-M, both bearing the same mutation, cotransfected in HEK-293T; lysed 24 h posttransfection in 50 mM Tris pH 7.4, 150 mM NaCl, 0.05% NP-40, 5% glycerol, 20 mM sodium molybdate; IP with anti-HA (16B12) and Dynabeads Protein G at 4°C; blot with polyclonal anti-CDV M; coIP efficiency index = (coIP/IP)/(ratio in total lysates), normalised to wt = 100%.

The target in assay [13] is CDV M protein (strain A75/17) mutant E89D. The assay is described as follows: coimmunoprecipitation (coIP efficiency index, Western blot band quantification). As to conditions: 2xHA-M and FLAG-M co-expressed in HEK-293T cells; IP anti-HA, IB anti-M; parent: est. 100; read off a plot. (A western blot detects proteins with antibodies after separation by electrophoresis.)
Assay [14] has as its target CDV M protein (strain A75/17) mutant K238E. Described as above. As to conditions: 2xHA-M and FLAG-M co-expressed in HEK-293T cells; IP anti-HA, IB anti-M; bar marked 'Poorly expressed'; parent: est. 100; read off a plot.
Assay [15] addresses CDV M protein (strain A75/17) mutant E242Q. Described as above. As to conditions: 2xHA-M and FLAG-M co-expressed in HEK-293T cells; IP anti-HA, IB anti-M; parent: est. 100; read off a plot.
For assay [16], the target named is CDV M protein (strain A75/17) mutant E89Y. The assay is described as above. As to conditions: 2xHA-M and FLAG-M co-expressed in HEK-293T cells; IP anti-HA, IB anti-M; parent: est. 100; read off a plot.
Assay [17] has as its target CDV M protein (strain A75/17) mutant G245P (canine distemper virus, strain A75/17). The assay is described as follows: co-IP; FLAG-M and 2×HA-longlinker-M, both bearing the same mutation, cotransfected in HEK-293T; lysed 24 h posttransfection in 50 mM Tris pH 7.4, 150 mM NaCl, 0.05% NP-40, 5% glycerol, 20 mM sodium molybdate; IP with anti-HA (16B12) and Dynabeads Protein G at 4°C; blot with polyclonal anti-CDV M; coIP efficiency index = (coIP/IP)/(ratio in total lysates), normalised to wt = 100%.

The target of assay [18] is CDV M protein (strain A75/17) mutant K92E. Nature of the assay: coimmunoprecipitation (coIP efficiency index, Western blot band quantification). As to conditions: 2xHA-M and FLAG-M co-expressed in HEK-293T cells; IP anti-HA, IB anti-M; parent: est. 100; read off a plot.
Assay [19] deals with CDV M protein (strain A75/17) mutant E89K. Described as above. As to conditions: 2xHA-M and FLAG-M co-expressed in HEK-293T cells; IP anti-HA, IB anti-M; parent: est. 100; read off a plot.
In assay [20] the target is CDV M protein (strain A75/17) mutant E89H. The assay is described as above. As to conditions: 2xHA-M and FLAG-M co-expressed in HEK-293T cells; IP anti-HA, IB anti-M; parent: est. 100; read off a plot.

Regarding “canine distemper virus (CDV) matrix (M) protein, strain A75/17, wild type E89G”, the percent of parent (percent to wt) in [1] was determined as 47.

As to “canine distemper virus (CDV) matrix (M) protein, strain A75/17, wild type K243E”, the percent of parent (percent to wt) in assay [2] turned out to be 97.

As for “canine distemper virus (CDV) matrix (M) protein, strain A75/17, wild type K240Q”, the percent of parent (percent to wt) in assay [3] was determined as 100.

Consider “canine distemper virus (CDV) matrix (M) protein, strain A75/17, wild type L239D”, for which the percent of parent (percent to wt) in assay [4] was 110.

In the case of “canine distemper virus (CDV) matrix (M) protein, strain A75/17, wild type L96N”, the percent of parent (percent to wt) in assay [5] came to 96.

With “canine distemper virus (CDV) matrix (M) protein, strain A75/17, wild type A94S”, the percent of parent (percent to wt) in assay [6] stood at 98.

Regarding “canine distemper virus (CDV) matrix (M) protein, strain A75/17, wild type D235N”, in [7], the percent of parent (percent to wt) stood at 120.

On to “canine distemper virus (CDV) matrix (M) protein, strain A75/17, wild type E89R”, for which, in assay [8], the percent of parent (percent to wt) was determined as 77.

Turning to “canine distemper virus (CDV) matrix (M) protein, strain A75/17, wild type Y236F”, the percent of parent (percent to wt) in assay [9] is 84.

On to “canine distemper virus (CDV) matrix (M) protein, strain A75/17, wild type P87A”, for which, in assay [10], the percent of parent (percent to wt) was 120.

For the substance “canine distemper virus (CDV) matrix (M) protein, strain A75/17, wild type G245P”, the percent of parent (percent to wt) in assay [11] was determined as 4.

In the case of “CDV M protein (strain A75/17) mutant K238E (natural protein)”, the coIP efficiency index (normalised to wt) in assay [12] was determined as 9.7%.

As to “canine distemper virus (CDV) matrix (M) protein, strain A75/17, wild type E89D”, the percent of parent (percent to wt) in assay [13] came to 80.

For the substance “canine distemper virus (CDV) matrix (M) protein, strain A75/17, wild type K238E”, the percent of parent (percent to wt) in [14] is 9.

On to “canine distemper virus (CDV) matrix (M) protein, strain A75/17, wild type E242Q”, for which the percent of parent (percent to wt) in [15] stood at 150.

“canine distemper virus (CDV) matrix (M) protein, strain A75/17, wild type E89Y”: the percent of parent (percent to wt) in assay [16] is 91.

As for “CDV M protein (strain A75/17) mutant G245P (natural protein)”, the coIP efficiency index (normalised to wt) in assay [17] is 3.8%.

Take “canine distemper virus (CDV) matrix (M) protein, strain A75/17, wild type K92E”: the percent of parent (percent to wt) in assay [18] worked out at 87.

On to “canine distemper virus (CDV) matrix (M) protein, strain A75/17, wild type E89K”, for which the percent of parent (percent to wt) in assay [19] is 83.

Regarding “canine distemper virus (CDV) matrix (M) protein, strain A75/17, wild type E89H”, in assay [20], the percent of parent (percent to wt) is 98.
